# Data: patent publication US20230258640
# T1: TCPP-labelled peptide cleavage sequence for MMP-1 (GAGVPMS-MRGGAG) tethered to carboxygraphene-polyethylenimine
# T1 chain: GAGVPMSMRGGAG
# B1: Matrix-Metalloproteinase-1 (protein)
# chain: FVLTEGNPRWEQTHLTYRIENYTPDLPRADVDHAIEKAFQLWSNVTPLTFTKVSEGQADIMISFVRGDHRDNSPFDGPGGNLAHAFQPGPGIGGDAHFDEDERWTNNFREYNLHRVAAHELGHSLGLSHSTDIGALMYPSYTFSGDVQLAQDDIDGIQAIYGRSQNPVQPIGPQTPKACDSKLTFDAITTIRGEVMFFKDRFYMRTNPFYPEVELNFISVFWPQLPNGLEAAYEFADRDEVRFFKGNKYWAVQGQNVLHGYPKDIYSSFGFPRTVKHIDAALSEENTGKTYFFVANKYWRYDEYKRSMDPGYPKMIAHDFPGIGHKVDAVFMKDGFFYFFHGTRQYKFDPKTKRILTLQKANSWFNCRKN
# Target: T1, TCPP-labelled peptide cleavage sequence …
protein,measurement,value
B1,estimated limit of detection (LOD),femtomolar protease activities can be detected
same,fluorescence signal of released TCPP after 60 min incubation at 37 C,the intensity of the detected signal is proportional to concentration of enzyme
